Laboratory results reported in the supplement of paper PMC9112550, “Optimization of the antimicrobial peptide Bac7 by deep mutational scanning” (BMC Biology, 2022).
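Note: peptides expressed intracellularly from a pBAD plasmid library in pooled LB shake-flask culture, induced with 0.3% L-arabinose, DNA abundance read by NGS, three biological replicates, DESeq2 with apeglm shrinkage.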

Each sequence was assayed on Escherichia coli TOP10 (assay: shrunken log2 fold change of peptide-encoding DNA abundance (4.5 h post-induction vs induction); higher = less antimicrobial activity (less host growth inhibition)). Conditions: time post-induction: 4.5 h; library: site-saturation at positions 5, 18, 19, 20.
In the case of RRIRKRPPRLPRPRPRPHHMPRP, the “shrunken log2 fold change” value was -0.0738. With RRIRDRPPRLPRPRPRPKCGPRP the “shrunken log2 fold change” value was 0.00846. In the case of RRIRWRPPRLPRPRPRPEGGPRP, the “shrunken log2 fold change” value was 0.567. In the case of RRIRVRPPRLPRPRPRPDVLPRP, the “shrunken log2 fold change” value was 0.00338. RRIRGRPPRLPRPRPRPPKDPRP was tested, and the “shrunken log2 fold change” value was 0.799. In the case of RRIRWRPPRLPRPRPRPRIYPRP, the “shrunken log2 fold change” value was 0.068. With RRIRYRPPRLPRPRPRPEIIPRP the “shrunken log2 fold change” value was -0.0841. With RRIRNRPPRLPRPRPRPTDGPRP the “shrunken log2 fold change” value was -0.113. With RRIRGRPPRLPRPRPRPCLMPRP the “shrunken log2 fold change” value was 0.0827. For RRIRDRPPRLPRPRPRPIVTPRP, the “shrunken log2 fold change” value was 0.171. For RRIRCRPPRLPRPRPRPTKLPRP, the “shrunken log2 fold change” value was -0.132. For RRIRPRPPRLPRPRPRPDFMPRP, the “shrunken log2 fold change” value was -0.309. For RRIRMRPPRLPRPRPRPGRQPRP, the “shrunken log2 fold change” value was -0.00182. RRIRCRPPRLPRPRPRPFRAPRP was tested, and the “shrunken log2 fold change” value was -0.277. With RRIRFRPPRLPRPRPRPVLYPRP the “shrunken log2 fold change” value was -0.457. RRIRRRPPRLPRPRPRPKTMPRP was tested, and the “shrunken log2 fold change” value was 0.348. In the case of RRIRKRPPRLPRPRPRPYKAPRP, the “shrunken log2 fold change” value was -0.0235. With RRIRFRPPRLPRPRPRPQRNPRP the “shrunken log2 fold change” value was -0.323. With RRIRKRPPRLPRPRPRPTQWPRP the “shrunken log2 fold change” value was 0.622. In the case of RRIRGRPPRLPRPRPRPPRTPRP, the “shrunken log2 fold change” value was 1.33. With RRIRRRPPRLPRPRPRPALLPRP the “shrunken log2 fold change” value was -0.0136. RRIRVRPPRLPRPRPRPILKPRP was tested, and the “shrunken log2 fold change” value was -0.203. RRIRMRPPRLPRPRPRPTASPRP was tested, and the “shrunken log2 fold change” value was 1. RRIRWRPPRLPRPRPRPSKVPRP was tested, and the “shrunken log2 fold change” value was -0.04. For RRIRERPPRLPRPRPRPYQQPRP, the “shrunken log2 fold change” value was -0.228. For RRIRSRPPRLPRPRPRPNNSPRP, the “shrunken log2 fold change” value was -0.724. With RRIRGRPPRLPRPRPRPTSEPRP the “shrunken log2 fold change” value was 0.339. With RRIRCRPPRLPRPRPRPHWWPRP the “shrunken log2 fold change” value was 0.0398. For RRIRWRPPRLPRPRPRPTVKPRP, the “shrunken log2 fold change” value was -0.0974. With RRIRLRPPRLPRPRPRPCCSPRP the “shrunken log2 fold change” value was -0.144. With RRIRYRPPRLPRPRPRPSQNPRP the “shrunken log2 fold change” value was -0.874. With RRIRERPPRLPRPRPRPSHIPRP the “shrunken log2 fold change” value was -0.25. With RRIRDRPPRLPRPRPRPIINPRP the “shrunken log2 fold change” value was 0.423. With RRIRKRPPRLPRPRPRPYVPPRP the “shrunken log2 fold change” value was -0.423. RRIRLRPPRLPRPRPRPLCMPRP was tested, and the “shrunken log2 fold change” value was -0.467. With RRIRFRPPRLPRPRPRPAIYPRP the “shrunken log2 fold change” value was -0.999. For RRIRNRPPRLPRPRPRPGWEPRP, the “shrunken log2 fold change” value was 1.72. For RRIRIRPPRLPRPRPRPWWEPRP, the “shrunken log2 fold change” value was -0.109. With RRIRQRPPRLPRPRPRPHMAPRP the “shrunken log2 fold change” value was -0.0694. For RRIRTRPPRLPRPRPRPVDVPRP, the “shrunken log2 fold change” value was -0.236. With RRIRLRPPRLPRPRPRPFDPPRP the “shrunken log2 fold change” value was -0.352. In the case of RRIRVRPPRLPRPRPRPEIAPRP, the “shrunken log2 fold change” value was -0.0307. In the case of RRIRWRPPRLPRPRPRPMNRPRP, the “shrunken log2 fold change” value was -0.00448. In the case of RRIRGRPPRLPRPRPRPKREPRP, the “shrunken log2 fold change” value was -0.00218. With RRIRSRPPRLPRPRPRPPTCPRP the “shrunken log2 fold change” value was 0.155. In the case of RRIRTRPPRLPRPRPRPASIPRP, the “shrunken log2 fold change” value was -0.13. For RRIRKRPPRLPRPRPRPQEHPRP, the “shrunken log2 fold change” value was 0.0487. With RRIRKRPPRLPRPRPRPTRPPRP the “shrunken log2 fold change” value was 0.764. RRIRDRPPRLPRPRPRPYYWPRP was tested, and the “shrunken log2 fold change” value was -0.184. RRIRWRPPRLPRPRPRPSFPPRP was tested, and the “shrunken log2 fold change” value was -0.0295. In the case of RRIRIRPPRLPRPRPRPEHNPRP, the “shrunken log2 fold change” value was -0.505. RRIRHRPPRLPRPRPRPYPAPRP was tested, and the “shrunken log2 fold change” value was -0.425. With RRIRTRPPRLPRPRPRPIFIPRP the “shrunken log2 fold change” value was -0.383. With RRIRPRPPRLPRPRPRPASYPRP the “shrunken log2 fold change” value was -0.212. For RRIRPRPPRLPRPRPRPFQKPRP, the “shrunken log2 fold change” value was -0.163. For RRIRPRPPRLPRPRPRPTKGPRP, the “shrunken log2 fold change” value was 0.0911. In the case of RRIRHRPPRLPRPRPRPCNKPRP, the “shrunken log2 fold change” value was -0.395. RRIRMRPPRLPRPRPRPSIWPRP was tested, and the “shrunken log2 fold change” value was -0.255. For RRIRQRPPRLPRPRPRPFCYPRP, the “shrunken log2 fold change” value was -0.264. With RRIRTRPPRLPRPRPRPLWWPRP the “shrunken log2 fold change” value was 0.546. With RRIRARPPRLPRPRPRPHNCPRP the “shrunken log2 fold change” value was -0.162. With RRIRCRPPRLPRPRPRPKYTPRP the “shrunken log2 fold change” value was -0.511. For RRIRARPPRLPRPRPRPQGMPRP, the “shrunken log2 fold change” value was 0.233. With RRIRARPPRLPRPRPRPRTMPRP the “shrunken log2 fold change” value was 0.403. For RRIRYRPPRLPRPRPRPDNKPRP, the “shrunken log2 fold change” value was -0.609. For RRIRLRPPRLPRPRPRPDTSPRP, the “shrunken log2 fold change” value was -0.114. In the case of RRIRTRPPRLPRPRPRPLTRPRP, the “shrunken log2 fold change” value was 0.252. For RRIRWRPPRLPRPRPRPYEQPRP, the “shrunken log2 fold change” value was -0.398. For RRIRQRPPRLPRPRPRPWPLPRP, the “shrunken log2 fold change” value was -0.0625. RRIRWRPPRLPRPRPRPYFPPRP was tested, and the “shrunken log2 fold change” value was -0.282. For RRIRYRPPRLPRPRPRPELCPRP, the “shrunken log2 fold change” value was -0.403. For RRIRIRPPRLPRPRPRPWTDPRP, the “shrunken log2 fold change” value was -0.111. In the case of RRIRVRPPRLPRPRPRPPLTPRP, the “shrunken log2 fold change” value was 0.119. In the case of RRIRERPPRLPRPRPRPARQPRP, the “shrunken log2 fold change” value was 0.0428. RRIRRRPPRLPRPRPRPRATPRP was tested, and the “shrunken log2 fold change” value was 0.162.
